Test [1] concerns the target mouse dorsal root ganglion (DRG) neurons (surface proteins that the peptides bind are not identified) (mouse (C57BL/6)). Kind of test: phage binding to cultured DRG neurons, anti-fd immunostaining, confocal microscopy.
For test [2] the target is unchanged. Nature of the test: double staining of isolated DRG neurons incubated with DRG-p1 and GST-DRG3, antibodies against phage and GST.
The target is the same in test [3]. Nature of the test: synthetic peptide DRG1 at 10^-6 M; competitor phage DRG-p1 on cultured DRG neurons, anti-fd immunostaining.
Test [4] has the same target. Kind of test: synthetic peptide DRG1 at 10^-4 M; competitor phage DRG-p1 on cultured DRG neurons, anti-fd immunostaining.
Test [5] shares this target. Nature of the test: synthetic peptide DRG2 at 10^-4 M; competitor phage DRG-p2 on cultured DRG neurons, anti-fd immunostaining.
Test [6] has the same target. Nature of the test: synthetic peptide DRG2 at 10^-6 M; competitor phage DRG-p2 on cultured DRG neurons, anti-fd immunostaining.
For test [7] the target is unchanged. Kind of test: synthetic peptide DRG3 at 10^-4 M; competitor phage DRG-p3 on cultured DRG neurons, anti-fd immunostaining.
For test [8] the target is unchanged. Nature of the test: synthetic peptide DRG3 at 10^-6 M; competitor phage DRG-p3 on cultured DRG neurons, anti-fd immunostaining.

As to “phage clone DRG-p2 (M13 phage displaying the DRG2 peptide DGPWRKM on pIII)”, the percent of DRG neurons bound in test [1] is 43%.

In test [1], “phage clone DRG-p3 (M13 phage displaying the DRG3 peptide FGQKASS on pIII)” returned a percent of DRG neurons bound of 29%. On to “phage clone DRG-p1 (M13 phage displaying the DRG1 peptide SPGARAF on pIII)”, for which the percent of DRG neurons bound in test [1] is 38%. Besides, the percent of GST-DRG3-positive neurons with double positive staining in test [2] was 71%.

B1: synthetic peptide DRG1: SPGARAF (peptide)
peptide: SPGARAF
Consider B1, for which the percent of anti-phage staining blocked was found to be 47% in test [3] and 97% in test [4].

B2: synthetic peptide DRG2: DGPWRKM (peptide)
peptide: DGPWRKM
On to B2, for which the percent of anti-phage staining blocked stood at 94% in test [5] and 54% in test [6].

B3: synthetic peptide DRG3: FGQKASS (peptide)
peptide: FGQKASS
B3: the percent of anti-phage staining blocked in test [7] came to 94%; in test [8], 53%.

The record behind these values is patent publication US20150098990A1.
